Sequences and labels used below:
B1: DNA replication regulator protein HobA (Helicobacter pylori), O25828 (parent)
chain: MKNFYDWIKEFVRDQGEFIAQQSGWLELERSSYAKLIAQTISHVLNGGSLLVSADSSRHWFLNYILSNLNPKDLKERPLLSVIDFNASSFYPKNDANLSLATIEMTYQNPMFWHVGKIENEGLKTILLSKIPSFLWLFEELKEDCLLLKEHDSLLDYKLLQLFKLFENALFSVLYNKVTL
partner: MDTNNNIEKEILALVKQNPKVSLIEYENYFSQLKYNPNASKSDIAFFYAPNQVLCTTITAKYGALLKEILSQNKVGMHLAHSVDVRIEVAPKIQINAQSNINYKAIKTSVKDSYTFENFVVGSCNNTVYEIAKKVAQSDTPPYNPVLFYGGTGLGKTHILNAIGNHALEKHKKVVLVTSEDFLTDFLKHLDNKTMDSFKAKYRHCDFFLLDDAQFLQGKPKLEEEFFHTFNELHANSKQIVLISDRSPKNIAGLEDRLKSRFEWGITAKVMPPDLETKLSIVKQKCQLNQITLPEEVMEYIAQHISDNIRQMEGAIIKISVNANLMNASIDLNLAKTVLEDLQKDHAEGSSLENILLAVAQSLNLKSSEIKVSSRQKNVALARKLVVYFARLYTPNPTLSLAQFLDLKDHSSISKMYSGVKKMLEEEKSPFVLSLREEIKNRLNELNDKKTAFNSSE

The source of these data is IntAct's records for PubMed 19940251.

Variants of B1 are the subject of one assay. Particulars: with dnaa_helpy dnaA.
As for R77C, the “effect of a mutation on the interaction” value was “decreasing interaction”.
Turning to L146S, the “effect of a mutation on the interaction” value is “disrupting interaction”.
With E119G, the “effect of a mutation on the interaction” value is reported as “disrupting interaction”.
The same measure, in the same setting: in the case of A169V it was “disrupting interaction”; in that of V82A, “decreasing interaction”; in that of H43R, “disrupting interaction”.
L162P: the “effect of a mutation on the interaction” value was “disrupting interaction”.
The same measure, in the same setting: the value for F138L was “disrupting interaction strength”; that for F138S was “disrupting interaction strength”; that for I118T was “disrupting interaction”.
Same read-out and setting: in the case of L170P it was “disrupting interaction”; in that of L51F, “decreasing interaction”.
Still for that read-out and setting: in the case of S99P it was “decreasing interaction”; in that of V44A, “decreasing interaction”; in that of F61C, “disrupting interaction”.
Consider L141P, for which the “effect of a mutation on the interaction” value is reported as “disrupting interaction”.
Turning to I83M, the “effect of a mutation on the interaction” value is on record as “decreasing interaction”.
With D55G, the “effect of a mutation on the interaction” value is given as “disrupting interaction”.
Still for that read-out and setting: the value for L128P was “disrupting interaction”.
Same read-out and setting: in the case of S67P it was “disrupting interaction”.
On the same count and under the same terms, in the case of L45P it was “disrupting interaction”; in that of L174P, “disrupting interaction”.
As to I41T, the “effect of a mutation on the interaction” value is recorded as “disrupting interaction”.
On the same count and under the same terms, the value for V115D was “disrupting interaction”; that for M111V was “decreasing interaction”; that for F112S was “disrupting interaction”.
With Y107H, the “effect of a mutation on the interaction” value is “decreasing interaction”.

The next assay covers variants of B1. To be noted: with dnaa_helpy dnaA. This is another data set of the same source.
Consider Y175E, for which the “effect of a mutation on the interaction” value is “disrupting interaction”.
The same measure, in the same setting: the value for L80R was “disrupting interaction”.
Regarding E76A;R77A;P78A, the “effect of a mutation on the interaction” value is recorded as “disrupting interaction”.

The variants in another assay derive from B1. To be noted: with dnaa_helpy dnaA. The source holds these as a separate data set.
H43R: the “effect of a mutation on the interaction” value was “decreasing interaction”.
The same measure, in the same setting: in the case of F138S it was “decreasing interaction”; in that of L51S, “disrupting interaction strength”; in that of L51F, “disrupting interaction strength”.
Still for that read-out and setting: the value for L137P was “decreasing interaction”.
The same measure, in the same setting: in the case of F166S it was “decreasing interaction”; in that of L69P, “disrupting interaction”.
With S88P, the “effect of a mutation on the interaction” value is listed as “disrupting interaction”.
Turning to S67P, the “effect of a mutation on the interaction” value was “decreasing interaction”.
Still for that read-out and setting: the value for L127P was “disrupting interaction”.
